Results on four variants are retold here after FireProtDB (doi:10.1021/bi052091o).

Where “and” joins values, the source holds several entries; their conditions need not be identical. Equal values may be shown once.

To fix the notation:
B1: Fatty acid-binding protein, intestinal, P02693 (parent)
chain: MAFDGTWKVDRNENYEKFMEKMGINVVKRKLGAHDNLKLTITQEGNKFTVKESSNFRNIDVVFELGVDFAYSLADGTELTGTWTMEGNKLVGKFKRVDNGKELIAVREISGNELIQTYTYEGVEAKRIFKKE

The series covers variants of B1. To be noted: Rattus norvegicus; pH 7; 25 °C; Urea; Fluorescence; NaPO4 25 mM; NaCl 75 mM; structure 1IFB; whole UniProt chain shown.

Take MAFDGTWKVDRNENYEKFMEKMGINVVKRKLGAHDNLKLTITQEGNKFTVKESSNFRNIDVVFELGVDAAYSLADGTELTGTWTMEGNKLVGKFKRVDNGKELIAVREISGNELIQTYTYEGVEAKRIFKKE [F69A]: the “ddG of mutation (higher = less stable)” value is -1.38 kcal/mol, the denaturant m value amounted to 1.76 kcal/mol/M, the “denaturant midpoint (higher = more stable)” value (“denaturant midpoint” for short) is 3.52 M and the unfolding free energy stood at 6.17 kcal/mol.
On to MAFDGTYKVDRNENYEKFMEKMGINVVKRKLGAHDNLKLTITQEGNKFTVKESSNFRNIDVVFELGVDFAYSLADGTELTGTWTMEGNKLVGKFKRVDNGKELIAVREISGNELIQTYTYEGVEAKRIFKKE [W7Y], for which the “ddG of mutation (higher = less stable)” value came out at 0.93 kcal/mol; the denaturant m value is 1.09 kcal/mol/M and 0.77 kcal/mol/M; the “denaturant midpoint” value is 3.52 M and 3.8 M; the unfolding free energy was 3.86 kcal/mol and 2.93 kcal/mol.
For MAFDGTWKVDRNENYEKFMEKMGINVVKRKLGAHDNLKLTITQEGNKFTVKESSNFRNIDVVFELGVDFAYSLADGTELTGTYTMEGNKLVGKFKRVDNGKELIAVREISGNELIQTYTYEGVEAKRIFKKE [W83Y], the “ddG of mutation (higher = less stable)” value is -0.09 kcal/mol; the denaturant m value is 1.38 kcal/mol/M and 1.1 kcal/mol/M; the “denaturant midpoint” value is 3.54 M and 3.6 M; the unfolding free energy is 4.88 kcal/mol and 3.99 kcal/mol.
Turning to MAFDGTWKVDRNENYEKFMEKMGINVVKRKLGAHDNLKLTITQEGNKFTVKESSNFRNIDVVFELGVDFAYSLADGTELTGTWTMEGNKLVGKAKRVDNGKELIAVREISGNELIQTYTYEGVEAKRIFKKE [F94A], the “ddG of mutation (higher = less stable)” value turned out to be 2.42 kcal/mol; the denaturant m value is 1.3 kcal/mol/M and 0.77 kcal/mol/M; the “denaturant midpoint” value is 1.83 M and 2.53 M; the unfolding free energy is 2.37 kcal/mol and 1.94 kcal/mol.
